Experimental data taken from patent US20220220166, “PPR PROTEIN CAUSING LESS AGGREGATION AND USE OF THE SAME” (EditForce, Inc., published 2022).
Changes are numbered by the printed parent chain.

Columns and labels:
Test in all cases: vs PPRcag_1; streptavidin plate luciferase assay, RT
Conditions in all cases: tags: N-terminal luciferase (Nluc), C-terminal 6xHis; label: 5'-biotin
[1] = biological target: T1, PPRcag_3 (6N9Q), Nluc-PPR-His6 (synthetic construct)
T1 chain: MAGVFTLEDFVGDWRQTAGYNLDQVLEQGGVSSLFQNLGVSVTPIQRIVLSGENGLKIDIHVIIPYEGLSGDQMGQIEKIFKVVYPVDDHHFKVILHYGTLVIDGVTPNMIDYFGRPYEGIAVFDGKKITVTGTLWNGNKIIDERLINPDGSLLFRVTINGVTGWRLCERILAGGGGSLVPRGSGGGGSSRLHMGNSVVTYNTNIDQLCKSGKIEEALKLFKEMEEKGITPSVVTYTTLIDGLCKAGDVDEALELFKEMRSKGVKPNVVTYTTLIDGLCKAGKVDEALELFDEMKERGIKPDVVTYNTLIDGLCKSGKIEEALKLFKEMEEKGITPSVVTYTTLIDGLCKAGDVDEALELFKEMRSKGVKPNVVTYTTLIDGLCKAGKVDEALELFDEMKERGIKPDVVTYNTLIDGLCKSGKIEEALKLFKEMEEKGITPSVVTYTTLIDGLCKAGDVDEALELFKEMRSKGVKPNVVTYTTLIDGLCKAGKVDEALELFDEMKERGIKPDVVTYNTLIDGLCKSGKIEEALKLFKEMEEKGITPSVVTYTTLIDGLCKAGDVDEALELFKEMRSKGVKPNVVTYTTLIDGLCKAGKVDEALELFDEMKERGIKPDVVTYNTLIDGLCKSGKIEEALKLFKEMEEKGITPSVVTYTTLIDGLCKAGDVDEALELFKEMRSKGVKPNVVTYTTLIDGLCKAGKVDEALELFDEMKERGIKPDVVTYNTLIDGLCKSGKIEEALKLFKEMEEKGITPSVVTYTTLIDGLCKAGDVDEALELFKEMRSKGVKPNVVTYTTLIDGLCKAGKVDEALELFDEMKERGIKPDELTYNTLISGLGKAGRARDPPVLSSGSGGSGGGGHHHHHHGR
Procedure: (§1) The binding experiment for PPR protein and RNA was performed by an experimental method for binding of PPR protein and biotinylated RNA on a streptavidin plate.
(§2) There were synthesized RNA probes of 30-base RNAs containing the target CAGx6 sequence, untargeted CGGx6, CUGx6, and CCGx6, and the Dlb ([…]) sequence (positions 8 to 25 of SEQ ID NO: 42) modified with biotin at the 5′-end (in that order, SEQ ID NOS: 38 to 42, respectively) (Grainer). To a streptavidin-coated plate (Thermo Fisher, Cat. No. 15502), the 5′-end biotinylated RNA probes were added, reaction was allowed at room temperature for 30 minutes, and the plate was washed with a probe washing buffer (20 mM Tris-HCl, pH 7.6, 150 mM NaCl, 5 mM MgCl₂, 0.5% NP-40, 1 mM DTT, 0.1% BSA). For background measurement, wells to which biotinylated RNA was not added, but the lysis buffer was added were also prepared. Then, a blocking buffer (20 mM Tris-HCl, pH 7.6, 150 mM NaCl, 5 mM MgCl₂, 0.5% NP-40, 1 mM […], 1% BSA) was added, and the plate surface was blocked at room temperature for 30 minutes. Then, 100 μL of the E. coli lysate containing luciferase-fused PPR protein having a luminescence of 1.5×10⁸ LU/μL was added, and the binding reaction was allowed at room temperature for 30 minutes. Then, the plate was washed 5 times with 200 μL of a washing buffer (20 mM Tris-HCl, pH 7.6, 150 mM NaCl, 5 mM MgCl₂, 0.5% NP-40, 1 mM DTT). To each well, 40 μL of luciferase substrate (Promega, E151A) diluted 2,500-fold with the washing buffer was added, reaction was allowed for 5 minutes, and then luminescence was measured with a plate reader (PerkinElmer, Cat. No. 5103-35).

[2] = biological target: T2, PPRcag_6 (6D9G), Nluc-PPR-His6 (synthetic construct)
T2 chain: T1 chain with N204D, Q207G
Procedure: as §1, §2

[3] = biological target: T3, PPRcag_4 (6N9E), Nluc-PPR-His6 (synthetic construct)
T3 chain: T1 chain with Q207E
Procedure: as §1, §2

[4] = biological target: T4, PPRcag_5 (6N9K), Nluc-PPR-His6 (synthetic construct)
T4 chain: T1 chain with Q207K
Procedure: as §1, §2

GACAUGCCAGCAGCAGCAGCAGCAGGACUG (ssRNA) [CAGx6 RNA probe]
binding signal [1]: ~80% | binding signal [2]: ~130% | binding signal [3]: ~60% | binding signal [4]: ~120%
